1 substance from PMC3150276 can be followed below.

The target of the assay is MogR, full-length (transcriptional repressor of flagellar motility genes) (Listeria monocytogenes).
Sequence of MogR, full-length (transcriptional repressor of flagellar motility genes) (Listeria monocytogenes) (G2K449 whole entry): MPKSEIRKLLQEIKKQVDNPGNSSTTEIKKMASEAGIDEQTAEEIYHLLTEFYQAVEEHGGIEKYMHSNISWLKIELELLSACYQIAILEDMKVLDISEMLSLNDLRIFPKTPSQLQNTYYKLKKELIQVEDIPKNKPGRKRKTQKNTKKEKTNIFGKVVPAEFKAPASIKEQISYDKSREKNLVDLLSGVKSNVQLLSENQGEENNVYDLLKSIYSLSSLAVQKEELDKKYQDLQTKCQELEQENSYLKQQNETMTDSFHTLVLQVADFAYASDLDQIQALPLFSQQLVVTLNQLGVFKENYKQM

Regarding “GmaR, full-length (bifunctional flagellar anti-repressor/glycosyltransferase) (natural protein)”, the gel mobility shift at 37°C: amount of purified GmaR-His6 needed to decrease shifted MogR-His6:DNA complexes as at 30°C is more than 2 fold.
